Test results taken from PMC11075132, “A transaminase-mediated aldol reaction and applications in cascades to styryl pyridines” (Catalysis Science & Technology, 2024).

Substrate: NCCc1ccc(O)cc1
Assay: purified protein
Type: biochemical, Chromobacterium violaceum
Settings: apparent; transaminase reaction; 0.1 eq. PLP, 1 eq. pyruvate as amine acceptor; substrate 4a taken from context

B1: CvTAm (Chromobacterium violaceum ATCC 12472) (protein)
chain: MQKQRTTSQWRELDAAHHLHPFTDTASLNQAGARVMTRGEGVYLWDSEGNKIIDGMAGLWCVNVGYGRKDFAEAARRQMEELPFYNTFFKTTHPAVVELSSLLAEVTPAGFDRVFYTNSGSESVDTMIRMVRRYWDVQGKPEKKTLIGRWNGYHGSTIGGASLGGMKYMHEQGDLPIPGMAHIEQPWWYKHGKDMTPDEFGVVAARWLEEKILEIGADKVAAFVGEPIQGAGGVIVPPATYWPEIERICRKYDVLLVADEVICGFGRTGEWFGHQHFGFQPDLFTAAKGLSSGYLPIGAVFVGKRVAEGLIAGGDFNHGFTYSGHPVCAAVAHANVAALRDEGIVQRVKDDIGPYMQKRWRETFSRFEHVDDVRGVGMVQAFTLVKNKAKRELFPDFGEIGTLCRDIFFRNNLIMRACGDHIVSAPPLVMTRAEVDEMLAVAERCLEEFEQTLKARGLA
notes: wild type, recombinant in E. coli, purified; homodimer; PLP enzyme; catalytic Lys288
  Km: 1690 µM
  kcat: 6.04 s⁻¹
